Consider 3 molecules from US20220306744A1.

Assay [1] concerns the target recombinant human PD-1 Fc chimera (human) (UniProt Q15116). Kind of assay: SPR Biacore T200, single cycle kinetics, human Fc tagged PD-1 captured on Protein G, 1:1 model; second line of values in the continuation row of the name. For orientation: Surface plasmon resonance follows binding to a sensor surface in real time, without labels.
Assay [2] concerns the target human PD-1 expressed on cells (CHO TREX human PD1 cell line, full-length human PD-1 sequence) (human) (UniProt Q15116). Kind of assay: FMAT: inhibition of human Fc tagged human PD-L1 (400 pM) binding to CHO human PD-1 cells.
For assay [3] the target is unchanged. As to the kind of experiment: cell-based or functional assay.
For assay [4], the target named is recombinant human PD-1 Fc chimera (human) (UniProt Q15116). Kind of assay: SPR Biacore T200, single cycle kinetics, human Fc tagged PD-1 captured on Protein G, 1:1 model.
Assay [5] has the same target. As to the kind of experiment: HTRF binding assay, 2 nM recombinant PD1, anti His-D2 and anti human-Fc cryptate. For orientation: Time-resolved FRET reads energy transfer from a long-lived donor to a nearby acceptor.
The target of assay [6] is cynomolgus PD-1 recombinant protein (Acro Biosystems cat no. PD-1-C5254) (cynomolgus). The description is as above.
The target in assay [7] is Strep tagged recombinant human PD-1 (human) (UniProt Q15116). As to the kind of experiment: SPR Biacore T200, single cycle kinetics, Strep tagged human PD-1 amine coupled, 1:1 model.
Chain of Strep tagged recombinant human PD-1 (human) (Q15116 25-167 limits assumed): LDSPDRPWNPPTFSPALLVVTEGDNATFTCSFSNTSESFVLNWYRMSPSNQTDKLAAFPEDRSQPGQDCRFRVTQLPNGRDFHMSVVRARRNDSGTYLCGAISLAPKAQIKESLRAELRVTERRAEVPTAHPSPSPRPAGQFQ

Chain of recombinant human PD-1 Fc chimera (human) (Q15116 25-167 limits assumed, stated change not applied): as the sequence (Q15116 25-167 limits assumed) above
Chain of human PD-1 expressed on cells (CHO TREX human PD1 cell line, full-length human PD-1 sequence) (human) (Q15116 21-288): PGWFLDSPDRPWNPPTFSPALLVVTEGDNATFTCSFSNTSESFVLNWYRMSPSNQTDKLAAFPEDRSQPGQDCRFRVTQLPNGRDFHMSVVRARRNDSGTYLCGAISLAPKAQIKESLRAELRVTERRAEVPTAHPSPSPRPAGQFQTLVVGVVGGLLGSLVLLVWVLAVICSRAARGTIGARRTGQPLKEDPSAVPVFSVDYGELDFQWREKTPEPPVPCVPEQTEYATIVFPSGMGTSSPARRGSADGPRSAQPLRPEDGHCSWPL

B1: 1.57b-4GS-1.1a-4GS-MSA binder (protein, part only; not given: Albumin binder, second linker, His tag, not shown: another chain or arm of the molecule; large carriers; small tags and cut ends)
chain: QVQLVESGGGLVKPGGSLRLSCAASGFTFSDNSMTWMRQAPGKGLEWVSYISSGGGVIFYADSVKGRFTISRDNAKNSLYLQMNSLRADDTAVYYCAREAPLRLGESPHDAFDISGQGTMVTVSSGGGGSGGGGSGGGGSGGGGSEVQLLESGGGSVQPGRSLRLSCAASGFTFDDHAMHWVRQAPGKGLEWVSGISWNSGSMGYADSVKDRFTISRDNAKSSLYLQMNSLRAEDTALYYCVREKGPGLTGSTADYYGLDVWGQGTMVTVSS
As usually defined, the Kd is the concentration at which binding is half-saturated. The term koff denotes the first-order rate constant of dissociation. What is called kon is the second-order rate constant of association. One may read the IC50 as the concentration needed to halve the response being measured. High values mean weaker potency, low ones greater potency. Broadly, the EC50 is the concentration at which the effect is half-maximal. Regarding B1, the Kd worked out at 0.0166 pM in assay [1], 0.0517 pM in assay [4] and 0.134 nM in assay [7]. The koff was determined as 1.32e-08 s⁻¹ in assay [1], 2.67e-08 s⁻¹ in assay [4] and 4.68e-05 s⁻¹ in assay [7]. The on-rate constant (kon) in assay [1] amounted to 793000 M⁻¹ s⁻¹; in assay [4], 516000 M⁻¹ s⁻¹; in assay [7], 349000 M⁻¹ s⁻¹. In assay [2], the IC50 is 4.4 nM. In assay [3], this molecule registered an EC50 (M), NFAT-Luciferase reporter gene assay of 2.5e-09 M. The EC50 in assay [5] worked out at 1 nM; in assay [6] it was 1.6 nM.

B2: 1.92b-4GS-1.39a-4GS-MSA binder (protein, part only; not given: mouse serum albumin binder, part only)
chain, part: EVQLVESGGGLVKPGGSLRLSCAASGFTFSDESMTWMRQAPGKGLEWVSYISSGGGVKFYADSVKGRFTISRDNAKNSLYLQMNSLRAEDTAVYYCAREAPLRLGESPHDAFDISGQGTMVTVSSGGGGSGGGGSGGGGSGGGGSEVQLVESGGGLVQPGRSLRLSCAASGFTFDDYALHWVRQAPGKDLEWVSGISWNGGSYGYADSVKGRFTISRDNAKNSLYLQMNSLRAEDTALYYCVREKGPGLTGSTADYYGLDAWGQGTMVTVSSGGGGSGGGGSGGGGSGGGGS
In turn, B2 yielded an EC50 (M), NFAT-Luciferase reporter gene assay in assay [3] of 4.7e-09 M.

B3: 1.57b-4GS-MSA binder-4GS-1.1a (protein, part only; not given: Middle albumin binder and linkers, not shown: another chain or arm of the molecule; large carriers; small tags and cut ends)
VH 1: QVQLVESGGGLVKPGGSLRLSCAASGFTFSDNSMTWMRQAPGKGLEWVSYISSGGGVIFYADSVKGRFTISRDNAKNSLYLQMNSLRADDTAVYYCAREAPLRLGESPHDAFDISGQGTMVTVSS
VH 2: EVQLLESGGGSVQPGRSLRLSCAASGFTFDDHAMHWVRQAPGKGLEWVSGISWNSGSMGYADSVKDRFTISRDNAKSSLYLQMNSLRAEDTALYYCVREKGPGLTGSTADYYGLDVWGQGTMVTVSS
modifications: In the real molecule both VH are parts of one polypeptide: 1.57b, 4GS (SEQ ID NO 1105), MSA binder VH, 4GS (SEQ ID NO 1105), 1.1a. They are given here as two separate chains because the middle domain has no letters.
In assay [3], B3 yielded an EC50 (M), NFAT-Luciferase reporter gene assay of 3.2e-09 M. Besides, in assay [4], the equilibrium dissociation constant (Kd) came to 8.06 pM, the koff came to 4.23e-06 s⁻¹ and the kon was found to be 524000 M⁻¹ s⁻¹.
